Source: patent US20220048967A1 (published 2022)
Numbered stars: 1 amine (or outer) side, 2 acyl side, 3 side chain; on linkers, the order of the positions; unused ones are H or OH. Square brackets hold non-standard residues; d marks the D form. Side chains are listed from the residue outwards. Ends that are not written are not given here. * marks the point of attachment. C18 diacid = O=C(O)CCCCCCCCCCCCCCCCC(=O)*; γGlu = O=C(O)[C@H](CCC(=O)[*:2])N[*:1]; AEEA = NCCOCCOCC(=O)O; Aib = CC(C)(N)C(=O)O

What was measured:
[1] = target: Pro-Link-tagged Human GLP-1R (human, UniProt P43220 24-463); assay: cell-based or functional assay
[2] = target: human GLP-1 receptor (human, UniProt P43220 24-463); assay: cell-based or functional assay

Binder	hGLP1R B-Arrestin2 % Top [1]	hGLP1R B-Arrestin2 Rel EC50 [1]	hGLP1R GTPgS % Top [2]	hGLP1R GTPgS Rel EC50 [2]
XXEGTFTSDYSIXLDKKAQXAFVXYLIAGGPSSGAPPPS (D-Tyr1, Aib2, αMeL13, K17 conjugated to (2-[2-(2-Amino-ethoxy)-ethoxy]-acetyl)2-(γ-Glu)-CO-(CH2)18-CO2H, Aib20, D-Glu24, C-terminal amide (NH2)) [Example 361]	20.2%	269 nM		
XXEGTFTSDYSIXLDXKAQXAFVXYLIAGGPSSGAPPPS (D-Tyr1, Aib2, αMeL13, Orn16, K17 conjugated to (2-[2-(2-Amino-ethoxy)-ethoxy]-acetyl)2-(γ-Glu)-CO-(CH2)16-CO2H, Aib20, D-Glu24, C-terminal amide (NH2)) [Example 364]		> 12000 nM		
XXEGTFTSDYSIXLDXKAQXAFVXYLIAGGPSSGAPPPS (D-Tyr1, Aib2, αMeL13, Orn16, K17 conjugated to (2-[2-(2-Amino-ethoxy)-ethoxy]-acetyl)2-(γ-Glu)-CO-(CH2)18-CO2H, Aib20, D-Glu24, C-terminal amide (NH2)) [Example 362]		> 11000 nM		
YXEGTXTSDYSIXLDEKAQXEFIXYLIEGGPSSGAPPPS (Aib2, αMeF(2F)6, αMeL13, K17 conjugated to (2-[2-(2-Amino-ethoxy)-ethoxy]-acetyl)2-(γ-Glu)-CO-(CH2)18-CO2H, Aib20, D-Glu24, C-terminal amide (NH2)) [Example 1]	105%	5 nM	91.1%	0.235 nM
XXEGTFTSDYSIXLDKKAQXAFIXYLIEGGPSSGAPPPS (D-Tyr1, Aib2, αMeL13, K17 conjugated to (2-[2-(2-Amino-ethoxy)-ethoxy]-acetyl)2-(γ-Glu)-CO-(CH2)18-CO2H, Aib20, D-Glu24, C-terminal amide (NH2)) [Example 356]		> 10500 nM		
YXEGTXTSDYSIXLDXKAQXEFIXYLIEGGPSSGAPPPS (Aib2, αMeF(2F)6, αMeL13, Orn16, K17 conjugated to (2-[2-(2-Amino-ethoxy)-ethoxy]-acetyl)2-(γ-Glu)-CO-(CH2)16-CO2H, Aib20, D-Glu24, C-terminal amide (NH2)) [Example 2]	96.1%	8.82 nM	95.9%	0.642 nM
YXEGTXTSDXSIXLDXKAQXEFIXXLIEGGPSSGAPPPS (Aib2, αMeF(2F)6, 4Pal10, αMeL13, Orn16, K17 conjugated to (2-[2-(2-Amino-ethoxy)-ethoxy]-acetyl)2-(γ-Glu)-CO-(CH2)16-CO2H, Aib20, D-Glu24, αMeY25, C-terminal amide (NH2)) [Example 4]	92.4%	4.8 nM	86.9%	0.245 nM
XXEGTFTSDYSIXLDXKAQXAFIXYLIEGGPSSGAPPPS (D-Tyr1, Aib2, αMeL13, Orn16, K17 conjugated to (2-[2-(2-Amino-ethoxy)-ethoxy]-acetyl)2-(γ-Glu)-CO-(CH2)18-CO2H, Aib20, D-Glu24, C-terminal amide (NH2)) [Example 357]	18.2%	118 nM		
Y[Aib]EGTFTSDYSILLDKK([AEEA-AEEA-γGlu-C18 diacid])AQ[Aib]AFIEYLIAGGPSSGAPPPS-NH2 (N-terminus assumed; SMILES CC[C@H](C)[C@H](NC(=O)[C@H](CC(C)C)NC(=O)[C@H](Cc1ccc(O)cc1)NC(=O)[C@H](CCC(=O)O)NC(=O)[C@@H](NC(=O)[C@H](Cc1ccccc1)NC(=O)[C@H](C)NC(=O)C(C)(C)NC(=O)[C@H](CCC(N)=O)NC(=O)[C@H](C)NC(=O)[C@H](CCCCNC(=O)COCCOCCNC(=O)COCCOCCNC(=O)CC[C@H](NC(=O)CCCCCCCCCCCCCCCCC(=O)O)C(=O)O)NC(=O)[C@H](CCCCN)NC(=O)[C@H](CC(=O)O)NC(=O)[C@H](CC(C)C)NC(=O)[C@H](CC(C)C)NC(=O)[C@@H](NC(=O)[C@H](CO)NC(=O)[C@H](Cc1ccc(O)cc1)NC(=O)[C@H](CC(=O)O)NC(=O)[C@H](CO)NC(=O)[C@@H](NC(=O)[C@H](Cc1ccccc1)NC(=O)[C@@H](NC(=O)CNC(=O)[C@H](CCC(=O)O)NC(=O)C(C)(C)NC(=O)[C@@H](N)Cc1ccc(O)cc1)[C@@H](C)O)[C@@H](C)O)[C@@H](C)CC)[C@@H](C)CC)C(=O)N[C@@H](C)C(=O)NCC(=O)NCC(=O)N1CCC[C@H]1C(=O)N[C@@H](CO)C(=O)N[C@@H](CO)C(=O)NCC(=O)N[C@@H](C)C(=O)N1CCC[C@H]1C(=O)N1CCC[C@H]1C(=O)N1CCC[C@H]1C(=O)N[C@@H](CO)C(N)=O) [Example 316]	26.1%	6.08 nM	56.7%	0.766 nM
YXEGTFTSDYSILLDKKAQXAFIEYLIEGGPSSGAPPPS (Aib2, K17 conjugated to (2-[2-(2-Amino-ethoxy)-ethoxy]-acetyl)2-(γ-Glu)-CO-(CH2)16-CO2H, Aib20, C-terminal amide (NH2)) [Example 315]	25.4%	19.9 nM	44.2%	0.601 nM
FXEGTFTSDYSIXLDKKAQXEFIEYLIAGGPSSGAPPPS (not fully specified; Aib2, αMeL13, K17 conjugated to (2-[2-(2-Amino-ethoxy)-ethoxy]-acetyl)2-(γ-Glu)-CO-(CH2)18-CO2H, Aib20, C-terminal amide (NH2)) [Example 338]	47%	18.9 nM		
XXEGTFTSDYSIXLDXKAQXAFVEYLIEGGPSSGAPPPS (D-Tyr1, Aib2, αMeL13, Orn16, K17 conjugated to (2-[2-(2-Amino-ethoxy)-ethoxy]-acetyl)2-(γ-Glu)-CO-(CH2)18-CO2H, Aib20, C-terminal amide (NH2)) [Example 360]	25.8%	39.5 nM		
Y[Aib]EGTFTSDYSILLDKK([AEEA-AEEA-γGlu-C18 diacid])AQ[Aib]AFIEYLIAGGPSSG-NH2 (N-terminus assumed; SMILES CC[C@H](C)[C@H](NC(=O)[C@H](CC(C)C)NC(=O)[C@H](Cc1ccc(O)cc1)NC(=O)[C@H](CCC(=O)O)NC(=O)[C@@H](NC(=O)[C@H](Cc1ccccc1)NC(=O)[C@H](C)NC(=O)C(C)(C)NC(=O)[C@H](CCC(N)=O)NC(=O)[C@H](C)NC(=O)[C@H](CCCCNC(=O)COCCOCCNC(=O)COCCOCCNC(=O)CC[C@H](NC(=O)CCCCCCCCCCCCCCCCC(=O)O)C(=O)O)NC(=O)[C@H](CCCCN)NC(=O)[C@H](CC(=O)O)NC(=O)[C@H](CC(C)C)NC(=O)[C@H](CC(C)C)NC(=O)[C@@H](NC(=O)[C@H](CO)NC(=O)[C@H](Cc1ccc(O)cc1)NC(=O)[C@H](CC(=O)O)NC(=O)[C@H](CO)NC(=O)[C@@H](NC(=O)[C@H](Cc1ccccc1)NC(=O)[C@@H](NC(=O)CNC(=O)[C@H](CCC(=O)O)NC(=O)C(C)(C)NC(=O)[C@@H](N)Cc1ccc(O)cc1)[C@@H](C)O)[C@@H](C)O)[C@@H](C)CC)[C@@H](C)CC)C(=O)N[C@@H](C)C(=O)NCC(=O)NCC(=O)N1CCC[C@H]1C(=O)N[C@@H](CO)C(=O)N[C@@H](CO)C(=O)NCC(N)=O) [Example 272]		> 12000 nM	66.5%	0.651 nM
Y[Aib]EGTFTSDYSILLDKK([AEEA-AEEA-γGlu-C18 diacid])AQ[Aib]AFIEYLIEGGPSSG-NH2 (N-terminus assumed; SMILES CC[C@H](C)[C@H](NC(=O)[C@H](CC(C)C)NC(=O)[C@H](Cc1ccc(O)cc1)NC(=O)[C@H](CCC(=O)O)NC(=O)[C@@H](NC(=O)[C@H](Cc1ccccc1)NC(=O)[C@H](C)NC(=O)C(C)(C)NC(=O)[C@H](CCC(N)=O)NC(=O)[C@H](C)NC(=O)[C@H](CCCCNC(=O)COCCOCCNC(=O)COCCOCCNC(=O)CC[C@H](NC(=O)CCCCCCCCCCCCCCCCC(=O)O)C(=O)O)NC(=O)[C@H](CCCCN)NC(=O)[C@H](CC(=O)O)NC(=O)[C@H](CC(C)C)NC(=O)[C@H](CC(C)C)NC(=O)[C@@H](NC(=O)[C@H](CO)NC(=O)[C@H](Cc1ccc(O)cc1)NC(=O)[C@H](CC(=O)O)NC(=O)[C@H](CO)NC(=O)[C@@H](NC(=O)[C@H](Cc1ccccc1)NC(=O)[C@@H](NC(=O)CNC(=O)[C@H](CCC(=O)O)NC(=O)C(C)(C)NC(=O)[C@@H](N)Cc1ccc(O)cc1)[C@@H](C)O)[C@@H](C)O)[C@@H](C)CC)[C@@H](C)CC)C(=O)N[C@@H](CCC(=O)O)C(=O)NCC(=O)NCC(=O)N1CCC[C@H]1C(=O)N[C@@H](CO)C(=O)N[C@@H](CO)C(=O)NCC(N)=O) [Example 266]	17.1%	16 nM	63.4%	0.865 nM
YXEGTFTSDYSIXLDKKAQXAFIEYLIEGGPSSG (Aib2, αMeL13, K17 conjugated to (2-[2-(2-Amino-ethoxy)-ethoxy]-acetyl)2-(γ-Glu)-CO-(CH2)16-CO2H, Aib20, C-terminal amide (NH2)) [Example 300]	38.4%	5.4 nM	85.6%	0.405 nM
YXEGTFTSDYSIXLDEKAQXAFIEYLIEGGPSSG (Aib2, αMeL13, K17 conjugated to (2-[2-(2-Amino-ethoxy)-ethoxy]-acetyl)2-(γ-Glu)-CO-(CH2)16-CO2H, Aib20, C-terminal amide (NH2)) [Example 303]	47.7%	17.9 nM	74.3%	0.547 nM
YXEGTXTSDYSILLDKKAQXAFIEYLIEGGPSSG (Aib2, αMeF6, K17 conjugated to (2-[2-(2-Amino-ethoxy)-ethoxy]-acetyl)2-(γ-Glu)-CO-(CH2)16-CO2H, Aib20, C-terminal amide (NH2)) [Example 301]	93.7%	2.67 nM	91.4%	0.435 nM
YXEGTXTSDYSILLDKKAQXAFIEYLIEGGPSSG (Aib2, αMeF(2F)6, K17 conjugated to (2-[2-(2-Amino-ethoxy)-ethoxy]-acetyl)2-(γ-Glu)-CO-(CH2)16-CO2H, Aib20, C-terminal amide (NH2)) [Example 302]	98.4%	2.19 nM	98.6%	0.268 nM
Y[Aib]EGTFTSDYSILLDKK([AEEA-AEEA-γGlu-C18 diacid])AQ[Aib]AFIEYLIEGG-NH2 (N-terminus assumed; SMILES CC[C@H](C)[C@H](NC(=O)[C@H](CC(C)C)NC(=O)[C@H](Cc1ccc(O)cc1)NC(=O)[C@H](CCC(=O)O)NC(=O)[C@@H](NC(=O)[C@H](Cc1ccccc1)NC(=O)[C@H](C)NC(=O)C(C)(C)NC(=O)[C@H](CCC(N)=O)NC(=O)[C@H](C)NC(=O)[C@H](CCCCNC(=O)COCCOCCNC(=O)COCCOCCNC(=O)CC[C@H](NC(=O)CCCCCCCCCCCCCCCCC(=O)O)C(=O)O)NC(=O)[C@H](CCCCN)NC(=O)[C@H](CC(=O)O)NC(=O)[C@H](CC(C)C)NC(=O)[C@H](CC(C)C)NC(=O)[C@@H](NC(=O)[C@H](CO)NC(=O)[C@H](Cc1ccc(O)cc1)NC(=O)[C@H](CC(=O)O)NC(=O)[C@H](CO)NC(=O)[C@@H](NC(=O)[C@H](Cc1ccccc1)NC(=O)[C@@H](NC(=O)CNC(=O)[C@H](CCC(=O)O)NC(=O)C(C)(C)NC(=O)[C@@H](N)Cc1ccc(O)cc1)[C@@H](C)O)[C@@H](C)O)[C@@H](C)CC)[C@@H](C)CC)C(=O)N[C@@H](CCC(=O)O)C(=O)NCC(=O)NCC(N)=O) [Example 267]	16.5%	9.01 nM	62.3%	0.867 nM
